Experimental findings from patent US10800847 are described below.

The target of experiment [1] is HLA-A*3201 (A32) single antigen on beads (human). Description: Luminex, iBead vs regular bead, IVIg 1:4.
The target in experiment [2] is HLA-A*6602 (A66) single antigen on beads (human). Description: Luminex, iBead vs regular bead, IVIg 1:4.
Experiment [3] concerns the target HLA-A*3002 (A30) single antigen on beads (human). Description: Luminex, iBead vs regular bead, IVIg 1:4.
Experiment [4] has as its target HLA-A*3401 (A34) single antigen on beads (human). Description: Luminex, iBead vs regular bead, IVIg 1:4.
Experiment [5] has as its target HLA-A*6601 (A66) single antigen on beads (human). Description: Luminex, iBead vs regular bead, IVIg 1:4.
The target in experiment [6] is HLA-A*3301 (A33) single antigen on beads (human). Description: Luminex, iBead vs regular bead, IVIg 1:4.
The target of experiment [7] is HLA-A*2902 (A29) single antigen on beads (human). Description: Luminex, iBead vs regular bead, IVIg 1:4.
Experiment [8] concerns the target HLA-A*8001 (A80) single antigen on Luminex beads (human). As to the kind of experiment: Luminex single antigen bead assay, iBeads vs regular beads, IVIg 1:4.
In experiment [9] the target is HLA-A*6802 (A68) single antigen on Luminex beads (human). The experiment is described as above.
Experiment [10] deals with HLA-A*6901 (A69) single antigen on Luminex beads (human). Described as above.
A further experiment concerns the target HLA-B*1301 (B13) (human). Description: Luminex regular beads (#7), IVIg diluted 1:4.
Another experiment addresses HLA-B*1516 (B63) (human). As to the kind of experiment: Luminex regular beads (#7), IVIg diluted 1:4.
The target of another experiment is HLA-B*1503 (B72) (human). As to the kind of experiment: Luminex regular beads (#7), IVIg diluted 1:4.
For another experiment, the target named is HLA-B*1511 (B75) (human). As to the kind of experiment: Luminex regular beads (#7), IVIg diluted 1:4.
Another experiment deals with HLA-B*1402 (B65) (human). Description: Luminex regular beads (#7), IVIg diluted 1:4.
For the next experiment, the target named is HLA-B*0702 (B7) (human). Description: Luminex regular beads (#7), IVIg diluted 1:4.
The target in another experiment is HLA-B*1510 (B71) (human). Description: Luminex regular beads (#7), IVIg diluted 1:4.
For the next experiment, the target named is HLA-B*1302 (B13) (human). Description: Luminex regular beads (#7), IVIg diluted 1:4.
For a further experiment, the target named is HLA-B*0801 (B8) (human). As to the kind of experiment: Luminex regular beads (#7), IVIg diluted 1:4.
The next experiment addresses HLA-B*1401 (B64) (human). Description: Luminex regular beads (#7), IVIg diluted 1:4.
A further experiment addresses HLA-B*1502 (B75) (human). Description: Luminex regular beads (#7), IVIg diluted 1:4.
The target in a further experiment is HLA-B*1801 (B18) (human). As to the kind of experiment: Luminex regular beads (#7), IVIg diluted 1:4.
Another experiment addresses HLA-B*1501 (B62) (human). Description: Luminex regular beads (#7), IVIg diluted 1:4.
For experiment [11], the target named is HLA-A*7401 (A74) single antigen on Luminex beads (human). As to the kind of experiment: Luminex single antigen bead assay, regular beads (#7), IVIg 1:4.
Experiment [12] has as its target HLA-A*6901 (A69) single antigen on Luminex beads (human). Described as above.
For experiment [13], the target named is HLA-Cw*0303 (Cw9) (human). As to the kind of experiment: Luminex, iBead vs regular bead MFI, 1:4.
The target in experiment [14] is HLA-Cw*0801 (Cw8) (human). Description: Luminex, iBead vs regular bead MFI, 1:4.
The target in experiment [15] is HLA-Cw*1701 (Cw17) (human). As to the kind of experiment: Luminex, iBead vs regular bead MFI, 1:4.
In experiment [16] the target is HLA-Cw*1502 (Cw15) (human). Description: Luminex, iBead vs regular bead MFI, 1:4.
Experiment [17] addresses HLA-Cw*1203 (Cw12) (human). As to the kind of experiment: Luminex, iBead vs regular bead MFI, 1:4.
The target in experiment [18] is HLA-Cw*0302 (Cw10) (human). Description: Luminex, iBead vs regular bead MFI, 1:4.
The target in experiment [19] is HLA-Cw*0602 (Cw6) (human). As to the kind of experiment: Luminex, iBead vs regular bead MFI, 1:4.
For experiment [20], the target named is HLA-Cw*0401 (Cw4) (human). Description: Luminex, iBead vs regular bead MFI, 1:4.
The target in experiment [21] is HLA-Cw*0102 (Cw1) (human). As to the kind of experiment: Luminex, iBead vs regular bead MFI, 1:4.
In experiment [22] the target is HLA-Cw*0501 (Cw5) (human). As to the kind of experiment: Luminex, iBead vs regular bead MFI, 1:4.
For experiment [23], the target named is HLA-Cw*1402 (Cw14) (human). Description: Luminex, iBead vs regular bead MFI, 1:4.
For experiment [24], the target named is HLA-Cw*0702 (Cw7) (human). Description: Luminex, iBead vs regular bead MFI, 1:4.
Experiment [25] has as its target HLA-Cw*0304 (Cw10) (human). As to the kind of experiment: Luminex, iBead vs regular bead MFI, 1:4.
The target in experiment [26] is HLA-B*2705 (B27) single antigen on Luminex beads (human). As to the kind of experiment: Luminex single antigen, iBeads (#6), IVIg 1:8.
Experiment [27] addresses HLA-B*4001 (B60) single antigen on Luminex beads (human). As to the kind of experiment: Luminex single antigen, iBeads (#6), IVIg 1:8.
Experiment [28] concerns the target HLA-B*3701 (B37) single antigen on Luminex beads (human). Description: Luminex single antigen, iBeads (#6), IVIg 1:8.
Experiment [29] has as its target HLA-B*4403 (B44) single antigen on Luminex beads (human). Description: Luminex single antigen, iBeads (#6), IVIg 1:8.
For experiment [30], the target named is HLA-B*4601 (B46) single antigen on Luminex beads (human). Description: Luminex single antigen, iBeads (#6), IVIg 1:8.
Experiment [31] concerns the target HLA-B*4501 (B45) single antigen on Luminex beads (human). Description: Luminex single antigen, iBeads (#6), IVIg 1:8.
Experiment [32] addresses HLA-B*4701 (B47) single antigen on Luminex beads (human). Description: Luminex single antigen, iBeads (#6), IVIg 1:8.

On to “IVIg Sandoglobulin (Novartis, Basel, Switzerland) (antibody)”, for which the Difference % (iBead MFI vs regular bead MFI) in [1] amounted to 202%; in [2], 111%; in [3] it was 202%; in experiment [4] it was 80%; in experiment [5], 742%; in experiment [6] it was 270%. The same substance registered a Difference % (iBead MFI vs regular bead MFI) in experiment [7] of 366%. Further, the Difference % (iBead MFI against regular bead MFI) in experiment [8] was 41%; in experiment [9], 31%; in [10], 68%. The MFI with HLA-B*1301 (B13) (human) is 524 MFI; with HLA-B*1516 (B63) (human), 799 MFI; in the experiment with HLA-B*1503 (B72) (human), 0 MFI; with HLA-B*1511 (B75) (human) it was 637 MFI; with HLA-B*1402 (B65) (human) it was 239 MFI; in the experiment with HLA-B*0702 (B7) (human), 309 MFI. The MFI was determined as 240 MFI in the experiment with HLA-B*1510 (B71) (human); 476 MFI with HLA-B*1302 (B13) (human); 233 MFI in the experiment with HLA-B*0801 (B8) (human); 621 MFI in the experiment with HLA-B*1401 (B64) (human); 157 MFI with HLA-B*1502 (B75) (human); 0 MFI in the experiment with HLA-B*1801 (B18) (human). In addition, the MFI with HLA-B*1501 (B62) (human) was 0 MFI; in experiment [11], 0 MFI; in experiment [12], 470 MFI. Besides, the Difference % in [13] was -29%; in [14], -42%; in experiment [15] it was -29%; in experiment [16], -41%; in [17], -35%; in experiment [18], -49%. Further, the Difference % in [19] was -60%; in experiment [20] it was -62%; in experiment [21], -49%; in experiment [22], -42%; in experiment [23], -59%; in experiment [24], -62%. The Difference % in experiment [25] is -38%.
In the case of “Octagam (IVIg, Octapharma, Lachen, Switzerland) (antibody)”, the MFI was 0 MFI in experiment [26]; 4 MFI in experiment [27]; 0 MFI in [28]; 698 MFI in experiment [29]; 526 MFI in experiment [30]; 308 MFI in [31]. The MFI in experiment [32] was 955 MFI.
